From US20190048071A1 (MorphoSys, published 2019)
Read-outs that look alike come from different tables or passages of the source.

How the values were obtained:
Mouse IL-17C [1] = target: T1, Mouse IL-17C (mouse, UniProt Q8K4C5 17-194, biotinylated in the receptor inhibition assay (ECL biotinylation module)); assay: SET (solution equilibrium titration, ECL based), apparent affinity, bivalent IgG
T1 construct: Recombinant protein (R&D Systems #2306-ml-025 in the cell assays); also called mIL-17C
T1 sequence: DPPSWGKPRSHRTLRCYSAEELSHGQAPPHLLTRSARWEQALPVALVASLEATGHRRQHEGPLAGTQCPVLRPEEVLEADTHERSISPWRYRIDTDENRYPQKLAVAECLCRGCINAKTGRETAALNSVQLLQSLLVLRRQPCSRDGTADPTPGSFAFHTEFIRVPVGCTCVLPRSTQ
From the text: (§1) Solution equilibrium titration (SET) was basically performed as described in the literature (Friquet et al., (1985) J. Immunol. Meth. 77: 305-19). In order to improve the sensitivity and accuracy of the SET method, it was transferred from classical ELISA to ECL based technology (Haenel et al. (2005) Anal Biochem. 339.1: 182-84).

Cynomolgus monkey IL-17C [2] = target: T2, Cynomolgus monkey IL-17C (cynomolgus monkey, UniProt Q9P0M4 19-197 (human entry), limits assumed, biotinylated in the receptor inhibition assay (ECL biotinylation module)); assay: as above
T2 construct: Produced in-house; also called cynomolgus IL-17C
T2 chain: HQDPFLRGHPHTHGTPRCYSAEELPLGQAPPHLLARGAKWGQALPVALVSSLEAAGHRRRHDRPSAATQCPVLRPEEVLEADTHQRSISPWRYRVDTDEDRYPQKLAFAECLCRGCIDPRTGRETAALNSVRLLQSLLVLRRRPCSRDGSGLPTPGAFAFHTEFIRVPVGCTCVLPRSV
From the text: as §1

Human IL-17C [3] = target: T3, Human IL-17C (human, UniProt Q9P0M4 19-197, biotinylated in the receptor inhibition assay (ECL biotinylation module)); assay: as above
T3 construct: Recombinant protein, purchased or made in-house (Novus #NBP1-42910 in the cell assays); also called hIL-17C; interleukin 17C
T3 sequence: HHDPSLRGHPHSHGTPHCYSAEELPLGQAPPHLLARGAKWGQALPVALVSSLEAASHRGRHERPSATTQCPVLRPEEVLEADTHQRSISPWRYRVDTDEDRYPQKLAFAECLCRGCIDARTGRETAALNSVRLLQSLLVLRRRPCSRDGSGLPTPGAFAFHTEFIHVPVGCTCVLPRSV
From the text: as §1

Mouse IL-17C [4] = target: T1, Mouse IL-17C; assay: MSD receptor inhibition assay, IgG format: IgG pre-incubated with biotinylated mouse IL-17C, binding to coated mouse IL17RE/Fc
Description: (§2) Purified IL-17C specific Fabs or IgGs, respectively were tested for its capacity to inhibit the binding of IL-17C to its specific receptor IL-17RE. Therefore MA6000 384-well plates (Meso Scale Discovery, MSD) were coated with 30 μl of mouse IL17RE/Fc chimeric protein at 75 ng/ml in PBS at 4° C. overnight. The next day a serial antibody dilution (concentrations from 0.001 to 100 nM) were pre-incubated for 30 min at RT with an equal volume of biotinylated human/cynomolgus or mouse IL-17C to determine an IC₅₀ concentration for receptor binding inhibition. After blocking of plates for 1 h with 2.5% BSA in PBST, previously formed antibody-ligand complexes were added for 1 h to coated IL17RE/Fc and receptor binding was detected via Streptavidin-ECL using MSD Sector Imager.
(§3) Results are shown in rows 3 and 4 in Table 2 and Table 3 respectively.

Mouse IL-17C [5] = target: T1, Mouse IL-17C; assay: cell-based or functional assay
Cynomolgus monkey IL-17C [6] = target: T2, Cynomolgus monkey IL-17C; assay: cell-based or functional assay
Human IL-17C [7] = target: T3, Human IL-17C; assay: cell-based or functional assay
Cynomolgus monkey IL-17C [8] = target: T2, Cynomolgus monkey IL-17C; assay: MSD receptor inhibition assay, IgG format: IgG pre-incubated with biotinylated cynomolgus IL-17C, binding to coated mouse IL17RE/Fc
Description: as §2, §3

Human IL-17C [9] = target: T3, Human IL-17C; assay: MSD receptor inhibition assay, IgG format: IgG pre-incubated with biotinylated human IL-17C, binding to coated mouse IL17RE/Fc
Description: as §2, §3

Cynomolgus monkey IL-17C [10] = target: T2, Cynomolgus monkey IL-17C; assay: MSD receptor inhibition assay, Fab format: Fab pre-incubated with biotinylated cynomolgus IL-17C, binding to coated mouse IL17RE/Fc
Description: as §2, §3

Mouse IL-17C [11] = target: T1, Mouse IL-17C; assay: SET (solution equilibrium titration, ECL based), monovalent affinity, Fab
From the text: as §1

Cynomolgus monkey IL-17C [12] = target: T2, Cynomolgus monkey IL-17C; assay: as above
From the text: as §1

Human IL-17C [13] = target: T3, Human IL-17C; assay: as above
From the text: as §1

Human IL-17C [14] = target: T3, Human IL-17C; assay: MSD receptor inhibition assay, Fab format: Fab pre-incubated with biotinylated human IL-17C, binding to coated mouse IL17RE/Fc
Description: as §2, §3

Mouse IL-17C [15] = target: T1, Mouse IL-17C; assay: MSD receptor inhibition assay, Fab format: Fab pre-incubated with biotinylated mouse IL-17C, binding to coated mouse IL17RE/Fc
Description: as §2

Mouse IL-17C [16] = target: T1, Mouse IL-17C; assay: cell-based or functional assay; remark: listed apart in the source
Cynomolgus monkey IL-17C [17] = target: T2, Cynomolgus monkey IL-17C; assay: cell-based or functional assay
Human IL-17C [18] = target: T3, Human IL-17C; assay: cell-based or functional assay; remark: listed apart in the source
Cynomolgus monkey IL-17C [19] = target: T2, Cynomolgus monkey IL-17C; assay: MSD receptor inhibition assay, Fab format: Fab pre-incubated with biotinylated cynomolgus IL-17C, binding to coated mouse IL17RE/Fc
Description: as §2

| Binder | EC50 (Mouse IL-17C [1]) [nM] | EC50 (Human IL-17C [3]) [nM] | IC50 (Mouse IL-17C [4]) [nM] | IC50 (Cynomolgus monkey IL-17C [8]) [nM] | IC50 (Human IL-17C [9]) [nM] | Kd (Mouse IL-17C [11]) [nM] | Kd (Cynomolgus monkey IL-17C [12]) [nM] | Kd (Human IL-17C [13]) [nM] | IC50 (Human IL-17C [14]) [nM] | IC50 (Mouse IL-17C [15]) [nM] | further results |
| --- | --- | --- | --- | --- | --- | --- | --- | --- | --- | --- | --- |
| MAB#1 IgG1 (antibody, V domains shown, Human IgG1 with lambda light chain from the Ylanthia library) VH: EVQLLESGGGLVQPGGSLRLSCAASGFTVSDYAMHWVRQAPGKGLEWVSYIGGVGEGTQYAESVKGRFTISRDNSKNTLYLQMNSLRAEDTAVYYCARGFAIRYYGFDYWGQGTLVTVSS VL: SYELTQPPSVSVSPGQTASITCSGDKLGDKYAYWYQQKPGQSPVLVIYQDSKRPSGIPERFSGSNSGNTATLTISGTQAEDEADYYCQVFTFPLVTTVFGGGTKLTVLG | 0.387 | 0.019 | 0.055 | 0.044 | 0.059 |  |  |  |  |  | EC50 (Cynomolgus monkey IL-17C [2]): 0.257 nM; Keratinocyte assay (IC50; CSF3 gene expression in mouse primary keratinocytes) (Mouse IL-17C [5]): 0.112 nM; NF-κB reporter assay (IC50) (Mouse IL-17C [5]): 0.0476 nM; NF-κB reporter assay (IC50) (Cynomolgus monkey IL-17C [6]): 0.0128 nM; Keratinocyte assay (IC50; DEFB4A gene expression in primary human keratinocytes stimulated with hIL-17C and TNFα) (Human IL-17C [7]): 0.319 nM; NF-κB reporter assay (IC50) (Human IL-17C [7]): 0.0313 nM |
| MAB#1 Fab (Fab, V domains shown, Purified monovalent Fab; also called MAB#1 (Fab format)) VH: EVQLLESGGGLVQPGGSLRLSCAASGFTVSDYAMHWVRQAPGKGLEWVSYIGGVGEGTQYAESVKGRFTISRDNSKNTLYLQMNSLRAEDTAVYYCARGFAIRYYGFDYWGQGTLVTVSS VL: SYELTQPPSVSVSPGQTASITCSGDKLGDKYAYWYQQKPGQSPVLVIYQDSKRPSGIPERFSGSNSGNTATLTISGTQAEDEADYYCQVFTFPLVTTVFGGGTKLTVLG |  |  |  |  |  | 28 | 22 | 3.95 | 2.9 | 6 | IC50 (Cynomolgus monkey IL-17C [10]): 2.7 nM |
| MAB#2 IgG1 (antibody, V domains shown, Human IgG1 with lambda light chain from the Ylanthia library) VH: QVQLVESGGGLVKPGGSLRLSCAASGFTFSDHYISWIRQAPGKGLEWVSYISSSGSTTYYAESVKGRFTISRDNAKNSLYLQMNSLRAEDTAVYYCARQSYYFLPYFDVWGQGTLVTVSS VL: QSALTQPASVSGSPGQSITISCTGTSSDVGSYNLVSWYQQHPGKAPKLMIYEGSKRPSGVSNRFSGSKSGNTASLTISGLQAEDEADYYCASRGSRRVLYVFGGGTKLTVLG | 0.323 | 0.016 | 0.048 | 0.057 | 0.058 |  |  |  |  |  | Keratinocyte assay (IC50; CSF3 gene expression in mouse primary keratinocytes) (Mouse IL-17C [16]): 0.051 nM; NF-κB reporter assay (IC50) (Mouse IL-17C [16]): 0.0648 nM; NF-κB reporter assay (IC50) (Cynomolgus monkey IL-17C [17]): 0.0129 nM; Keratinocyte assay (IC50; DEFB4A gene expression in primary human keratinocytes stimulated with hIL-17C and TNFα) (Human IL-17C [18]): 0.28 nM; NF-κB reporter assay (IC50) (Human IL-17C [18]): 0.0185 nM |
| MAB#2 Fab (Fab, V domains shown, Purified monovalent Fab; also called MAB#2 (Fab format)) VH: QVQLVESGGGLVKPGGSLRLSCAASGFTFSDHYISWIRQAPGKGLEWVSYISSSGSTTYYAESVKGRFTISRDNAKNSLYLQMNSLRAEDTAVYYCARQSYYFLPYFDVWGQGTLVTVSS VL: QSALTQPASVSGSPGQSITISCTGTSSDVGSYNLVSWYQQHPGKAPKLMIYEGSKRPSGVSNRFSGSKSGNTASLTISGLQAEDEADYYCASRGSRRVLYVFGGGTKLTVLG |  |  |  |  |  | 0.46 | 0.063 | 0.037 | 0.076 | 0.15 | IC50 (Cynomolgus monkey IL-17C [19]): 0.05 nM |
